The text below walks through data of IntAct's records for PubMed 19345194.

First the molecules themselves.
B1: Homer protein homolog 1 (Rattus norvegicus (Rat)), Q9Z214-2 (parent)
chain: MGEQPIFSTRAHVFQIDPNTKKNWVPTSKHAVTVSYFYDSTRNVYRIISLDGSKAIINSTITPNMTFTKTSQKFGQWADSRANTVYGLGFSSEHHLSKFAEKFQEFKEAARLAKEKSQEKMELTSTPSQESAGGDLQSPLTPESINGTDDERTPDVTQNSEPRAEPAQNALPFSHSSAISKHWEAELATLKGNNAKLTAALLESTANVKQWKQQLAAYQEEAERLHKRVTELECVSSQANAVHSHKTELSQTVQELEETLKVKEEEIERLKQEIDNARELQEQRDSLTQKLQEVEIRNKDLEGQLSELEQRLEKSQSEQDAFRSNLKTLLEILDGKIFELTELRDNLAKLLECS

The assay covers variants of B1. The following applies: with shan1_rat Shank1, Q9WV48.
Sequence of shan1_rat Shank1, Q9WV48 (Q9WV48 whole entry): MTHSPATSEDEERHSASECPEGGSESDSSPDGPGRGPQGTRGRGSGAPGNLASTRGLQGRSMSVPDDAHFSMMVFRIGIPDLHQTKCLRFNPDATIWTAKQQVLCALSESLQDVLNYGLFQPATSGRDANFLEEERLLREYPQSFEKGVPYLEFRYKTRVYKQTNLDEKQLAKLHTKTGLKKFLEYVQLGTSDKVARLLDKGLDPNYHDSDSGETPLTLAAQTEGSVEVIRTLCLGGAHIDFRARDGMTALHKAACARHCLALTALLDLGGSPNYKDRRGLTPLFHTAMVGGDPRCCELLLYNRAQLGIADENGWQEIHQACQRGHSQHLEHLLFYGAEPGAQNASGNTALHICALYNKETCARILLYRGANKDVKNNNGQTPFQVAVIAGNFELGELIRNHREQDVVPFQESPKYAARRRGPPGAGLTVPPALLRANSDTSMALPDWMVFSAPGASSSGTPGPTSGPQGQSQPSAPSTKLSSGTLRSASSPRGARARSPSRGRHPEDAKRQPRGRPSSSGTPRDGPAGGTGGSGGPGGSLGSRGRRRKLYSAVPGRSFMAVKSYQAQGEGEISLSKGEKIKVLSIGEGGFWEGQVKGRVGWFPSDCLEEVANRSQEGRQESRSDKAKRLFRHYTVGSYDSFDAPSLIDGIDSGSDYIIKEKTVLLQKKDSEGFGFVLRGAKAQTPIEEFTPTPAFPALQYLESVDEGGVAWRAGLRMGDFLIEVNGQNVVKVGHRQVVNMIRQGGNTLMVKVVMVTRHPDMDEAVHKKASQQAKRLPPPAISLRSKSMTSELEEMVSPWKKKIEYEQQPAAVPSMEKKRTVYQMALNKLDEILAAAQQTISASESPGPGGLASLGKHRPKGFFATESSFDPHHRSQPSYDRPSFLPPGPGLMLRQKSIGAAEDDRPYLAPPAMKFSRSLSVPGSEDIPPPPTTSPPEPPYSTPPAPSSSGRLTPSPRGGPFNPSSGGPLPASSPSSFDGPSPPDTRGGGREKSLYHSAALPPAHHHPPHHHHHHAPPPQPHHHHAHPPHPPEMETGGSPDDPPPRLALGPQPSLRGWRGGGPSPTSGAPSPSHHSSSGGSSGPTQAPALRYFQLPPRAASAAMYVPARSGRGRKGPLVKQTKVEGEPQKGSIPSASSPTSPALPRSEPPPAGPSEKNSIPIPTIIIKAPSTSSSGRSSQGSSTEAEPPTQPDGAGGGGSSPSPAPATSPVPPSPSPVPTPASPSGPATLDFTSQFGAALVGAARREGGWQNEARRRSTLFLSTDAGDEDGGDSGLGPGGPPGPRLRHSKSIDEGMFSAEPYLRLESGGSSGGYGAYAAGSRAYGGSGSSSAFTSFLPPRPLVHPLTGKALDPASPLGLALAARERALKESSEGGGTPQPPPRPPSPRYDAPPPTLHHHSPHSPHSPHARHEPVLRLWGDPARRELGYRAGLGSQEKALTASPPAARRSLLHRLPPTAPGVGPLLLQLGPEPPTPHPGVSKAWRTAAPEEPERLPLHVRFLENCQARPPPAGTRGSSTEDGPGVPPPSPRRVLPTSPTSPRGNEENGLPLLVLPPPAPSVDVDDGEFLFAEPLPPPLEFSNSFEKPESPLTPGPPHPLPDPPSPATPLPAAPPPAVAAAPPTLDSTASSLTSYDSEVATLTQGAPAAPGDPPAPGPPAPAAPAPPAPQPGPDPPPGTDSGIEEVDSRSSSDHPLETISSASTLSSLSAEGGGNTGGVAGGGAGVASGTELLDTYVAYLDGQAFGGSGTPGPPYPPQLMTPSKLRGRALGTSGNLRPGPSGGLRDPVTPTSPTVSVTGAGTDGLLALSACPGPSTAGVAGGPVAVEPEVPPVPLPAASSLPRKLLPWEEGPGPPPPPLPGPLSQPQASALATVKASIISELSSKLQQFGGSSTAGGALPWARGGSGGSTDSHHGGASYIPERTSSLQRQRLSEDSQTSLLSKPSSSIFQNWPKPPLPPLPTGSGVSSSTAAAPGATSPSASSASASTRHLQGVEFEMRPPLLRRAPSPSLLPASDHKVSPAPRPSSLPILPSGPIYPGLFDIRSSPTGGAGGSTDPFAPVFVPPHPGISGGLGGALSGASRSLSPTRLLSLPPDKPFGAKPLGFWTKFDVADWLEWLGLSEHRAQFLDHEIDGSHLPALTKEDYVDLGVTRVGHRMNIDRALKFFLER
Regarding MGEQPIFSTRAHVFQIDPNTKKNAVPTSKHAVTVSYFYDSTRNVYRIISLDGSKAIINSTITPNMTFTKTSQKFGQWADSRANTVYGLGFSSEHHLSKFAEKFQEFKEAARLAKEKSQEKMELTSTPSQESAGGDLQSPLTPESINGTDDERTPDVTQNSEPRAEPAQNALPFSHSSAISKHWEAELATLKGNNAKLTAALLESTANVKQWKQQLAAYQEEAERLHKRVTELECVSSQANAVHSHKTELSQTVQELEETLKVKEEEIERLKQEIDNARELQEQRDSLTQKLQEVEIRNKDLEGQLSELEQRLEKSQSEQDAFRSNLKTLLEILDGKIFELTELRDNLAKLLECS [W24A], the “effect of a mutation on the interaction” value is reported as “decreasing interaction”.
